Reference: PMC7367873, “Dissecting the sequence determinants for dephosphorylation by the catalytic subunits of phosphatases PP1 and PP2A” (Nature Communications, 2020)

B1: MYO1C (protein, UniProt O00159 1-1063, looked up)
Unconventional myosin-Ic: MALQVELVPTGEIIRVVHPHRPCKLALGSDGVRVTMESALTARDRVGVQDFVLLENFTSEAAFIENLRRRFRENLIYTYIGPVLVSVNPYRDLQIYSRQHMERYRGVSFYEVPPHLFAVADTVYRALRTERRDQAVMISGESGAGKTEATKRLLQFYAETCPAPERGGAVRDRLLQSNPVLEAFGNAKTLRNDNSSRFGKYMDVQFDFKGAPVGGHILSYLLEKSRVVHQNHGERNFHIFYQLLEGGEEETLRRLGLERNPQSYLYLVKGQCAKVSSINDKSDWKVVRKALTVIDFTEDEVEDLLSIVASVLHLGNIHFAANEESNAQVTTENQLKYLTRLLSVEGSTLREALTHRKIIAKGEELLSPLNLEQAAYARDALAKAVYSRTFTWLVGKINRSLASKDVESPSWRSTTVLGLLDIYGFEVFQHNSFEQFCINYCNEKLQQLFIELTLKSEQEEYEAEGIAWEPVQYFNNKIICDLVEEKFKGIISILDEECLRPGEATDLTFLEKLEDTVKHHPHFLTHKLADQRTRKSLGRGEFRLLHYAGEVTYSVTGFLDKNNDLLFRNLKETMCSSKNPIMSQCFDRSELSDKKRPETVATQFKMSLLQLVEILQSKEPAYVRCIKPNDAKQPGRFDEVLIRHQVKYLGLLENLRVRRAGFAYRRKYEAFLQRYKSLCPETWPTWAGRPQDGVAVLVRHLGYKPEEYKMGRTKIFIRFPKTLFATEDALEVRRQSLATKIQAAWRGFHWRQKFLRVKRSAICIQSWWRGTLGRRKAAKRKWAAQTIRRLIRGFVLRHAPRCPENAFFLDHVRTSFLLNLRRQLPQNVLDTSWPTPPPALREASELLRELCIKNMVWKYCRSISPEWKQQLQQKAVASEIFKGKKDNYPQSVPRLFISTRLGTDEISPRVLQALGSEPIQYAVPVVKYDRKGYKPRSRQLLLTPNAVVIVEDAKVKQRIDYANLTGISVSSLSDSLFVLHVQRADNKQKGDVVLQSDHVIETLTKTALSANRVNSININQGSITFAGGPGRDGTIDFTPGSELLITKAKNGHLAVVAPRLNSR
B2: OASL (protein, UniProt Q15646 2-514, looked up)
2'-5'-oligoadenylate …: ALMQELYSTPASRLDSFVAQWLQPHREWKEEVLDAVRTVEEFLRQEHFQGKRGLDQDVRVLKVVKVGSFGNGTVLRSTREVELVAFLSCFHSFQEAAKHHKDVLRLIWKTMWQSQDLLDLGLEDLRMEQRVPDALVFTIQTRGTAEPITVTIVPAYRALGPSLPNSQPPPEVYVSLIKACGGPGNFCPSFSELQRNFVKHRPTKLKSLLRLVKHWYQQYVKARSPRANLPPLYALELLTIYAWEMGTEEDENFMLDEGFTTVMDLLLEYEVICIYWTKYYTLHNAIIEDCVRKQLKKERPIILDPADPTLNVAEGYRWDIVAQRASQCLKQDCCYDNRENPISSWNVKRARDIHLTVEQRGYPDFNLIVNPYEPIRKVKEKIRRTRGYSGLQRLSFQVPGSERQLLSSRCSLAKYGIFSHTHIYLLETIPSEIQVFVKNPDGGSYAYAINPNSFILGLKQQIEDQQGLPKKQQQLEFQGQVLQDWLGLGIYGIQDSDTLILSKKKGEALFPAS
B3: PKP2 (protein, UniProt Q99959 1-881, looked up)
Plakophilin-2: MAAPGAPAEYGYIRTVLGQQILGQLDSSSLALPSEAKLKLAGSSGRGGQTVKSLRIQEQVQQTLARKGRSSVGNGNLHRTSSVPEYVYNLHLVENDFVGGRSPVPKTYDMLKAGTTATYEGRWGRGTAQYSSQKSVEERSLRHPLRRLEISPDSSPERAHYTHSDYQYSQRSQAGHTLHHQESRRAALLVPPRYARSEIVGVSRAGTTSRQRHFDTYHRQYQHGSVSDTVFDSIPANPALLTYPRPGTSRSMGNLLEKENYLTAGLTVGQVRPLVPLQPVTQNRASRSSWHQSSFHSTRTLREAGPSVAVDSSGRRAHLTVGQAAAGGSGNLLTERSTFTDSQLGNADMEMTLERAVSMLEADHMLPSRISAAATFIQHECFQKSEARKRVNQLRGILKLLQLLKVQNEDVQRAVCGALRNLVFEDNDNKLEVAELNGVPRLLQVLKQTRDLETKKQITDHTVNLRSRNGWPGAVAHACNPSTLGGQGGRITRSGVRDQPDQHGLLWNLSSNDKLKNLMITEALLTLTENIIIPFSGWPEGDYPKANGLLDFDIFYNVTGCLRNMSSAGADGRKAMRRCDGLIDSLVHYVRGTIADYQPDDKATENCVCILHNLSYQLEAELPEKYSQNIYIQNRNIQTDNNKSIGCFGSRSRKVKEQYQDVPMPEEKSNPKGVEWLWHSIVIRMYLSLIAKSVRNYTQEASLGALQNLTAGSGPMPTSVAQTVVQKESGLQHTRKMLHVGDPSVKKTAISLLRNLSRNLSLQNEIAKETLPDLVSIIPDTVPSTDLLIETTASACYTLNNIIQNSYQNARDLLNTGGIQKIMAISAGDAYASNKASKAASVLLYSLWAHTELHHAYKKAQFKKTDFVNSRTAKAYHSLKD
B4: DDX5 (protein, UniProt P17844 1-614, looked up)
Probable ATP-dependent RNA …: MSGYSSDRDRGRDRGFGAPRFGGSRAGPLSGKKFGNPGEKLVKKKWNLDELPKFEKNFYQEHPDLARRTAQEVETYRRSKEITVRGHNCPKPVLNFYEANFPANVMDVIARQNFTEPTAIQAQGWPVALSGLDMVGVAQTGSGKTLSYLLPAIVHINHQPFLERGDGPICLVLAPTRELAQQVQQVAAEYCRACRLKSTCIYGGAPKGPQIRDLERGVEICIATPGRLIDFLECGKTNLRRTTYLVLDEADRMLDMGFEPQIRKIVDQIRPDRQTLMWSATWPKEVRQLAEDFLKDYIHINIGALELSANHNILQIVDVCHDVEKDEKLIRLMEEIMSEKENKTIVFVETKRRCDELTRKMRRDGWPAMGIHGDKSQQERDWVLNEFKHGKAPILIATDVASRGLDVEDVKFVINYDYPNSSEDYIHRIGRTARSTKTGTAYTFFTPNNIKQVSDLISVLREANQAINPKLLQLVEDRGSGRSRGRGGMKDDRRDRYSAGKRGGFNTFRDRENYDRGYSSLLKRDFGAKTQNGVYSAANYTNGSFGSNFVSAGIQTSFRTGNPTGTYQNGYDSTQQYGSNVPNMHNGMNQQAYAYPATAAAPMIGYPMPTGYSQ
B5: RBM39 (protein, UniProt Q14498 2-530, looked up)
RNA-binding protein 39: ADDIDIEAMLEAPYKKDENKLSSANGHEERSKKRKKSKSRSRSHERKRSKSKERKRSRDRERKKSKSRERKRSRSKERRRSRSRSRDRRFRGRYRSPYSGPKFNSAIRGKIGLPHSIKLSRRRSRSKSPFRKDKSPVREPIDNLTPEERDARTVFCMQLAARIRPRDLEEFFSTVGKVRDVRMISDRNSRRSKGIAYVEFVDVSSVPLAIGLTGQRVLGVPIIVQASQAEKNRAAAMANNLQKGSAGPMRLYVGSLHFNITEDMLRGIFEPFGRIESIQLMMDSETGRSKGYGFITFSDSECAKKALEQLNGFELAGRPMKVGHVTERTDASSASSFLDSDELERTGIDLGTTGRLQLMARLAEGTGLQIPPAAQQALQMSGSLAFGAVAEFSFVIDLQTRLSQQTEASALAAAASVQPLATQCFQLSNMFNPQTEEEVGWDTEIKDDVIEECNKHGGVIHIYVDKNSAQGNVYVKCPSIAAAIAAVNALHGRWFAGKMITAAYVPLPTYHNLFPDSMTATQLLVPSRR
B6: C14orf166 (protein, UniProt Q9Y224 1-244, looked up)
RNA transcription, …: MFRRKLTALDYHNPAGFNCKDETEFRNFIVWLEDQKIRHYKIEDRGNLRNIHSSDWPKFFEKYLRDVNCPFKIQDRQEAIDWLLGLAVRLEYGDNAEKYKDLVPDNSKTADNATKNAEPLINLDVNNPDFKAGVMALANLLQIQRHDDYLVMLKAIRILVQERLTQDAVAKANQTKEGLPVALDKHILGFDTGDAVLNEAAQILRLLHIEELRELQTKINEAIVAVQAIIADPKTDHRLGKVGR
B7: SSBP1 (protein, UniProt Q04837 17-148, looked up)
Single-stranded DNA-binding …: ESETTTSLVLERSLNRVHLLGRVGQDPVLRQVEGKNPVTIFSLATNEMWRSGDSEVYQLGDVSQKTTWHRISVFRPGLRDVAYQYVKKGSRIYLEGKIDYGEYMDKNNVRRQATTIIADNIIFLSDQTKEKE
B8: SLC25A5 (protein, UniProt P05141 1-298, looked up)
ADP/ATP translocase 2: MTDAAVSFAKDFLAGGVAAAISKTAVAPIERVKLLLQVQHASKQITADKQYKGIIDCVVRIPKEQGVLSFWRGNLANVIRYFPTQALNFAFKDKYKQIFLGGVDKRTQFWLYFAGNLASGGAAGATSLCFVYPLDFARTRLAADVGKAGAEREFRGLGDCLVKIYKSDGIKGLYQGFNVSVQGIIIYRAAYFGIYDTAKGMLPDPKNTHIVISWMIAQTVTAVAGLTSYPFDTVRRRMMMQSGRKGTDIMYTGTLDCWRKIARDEGGKAFFKGAWSNVLRGMGGAFVLVLYDEIKKYT
B9: TUBA1C (protein, UniProt Q9BQE3 1-449, looked up)
Tubulin alpha-1C chain: MRECISIHVGQAGVQIGNACWELYCLEHGIQPDGQMPSDKTIGGGDDSFNTFFSETGAGKHVPRAVFVDLEPTVIDEVRTGTYRQLFHPEQLITGKEDAANNYARGHYTIGKEIIDLVLDRIRKLADQCTGLQGFLVFHSFGGGTGSGFTSLLMERLSVDYGKKSKLEFSIYPAPQVSTAVVEPYNSILTTHTTLEHSDCAFMVDNEAIYDICRRNLDIERPTYTNLNRLISQIVSSITASLRFDGALNVDLTEFQTNLVPYPRIHFPLATYAPVISAEKAYHEQLTVAEITNACFEPANQMVKCDPRHGKYMACCLLYRGDVVPKDVNAAIATIKTKRTIQFVDWCPTGFKVGINYQPPTVVPGGDLAKVQRAVCMLSNTTAVAEAWARLDHKFDLMYAKRAFVHWYVGEGMEEGEFSEAREDMAALEKDYEEVGADSADGEDEGEEY
B10: ATP5C1 (protein, UniProt P36542 26-298, looked up)
ATP synthase F(1) complex …: ATLKDITRRLKSIKNIQKITKSMKMVAAAKYARAERELKPARIYGLGSLALYEKADIKGPEDKKKHLLIGVSSDRGLCGAIHSSIAKQMKSEVATLTAAGKEVMLVGIGDKIRGILYRTHSDQFLVAFKEVGRKPPTFGDASVIALELLNSGYEFDEGSIIFNKFRSVISYKTEEKPIFSLNTVASADSMSIYDDIDADVLQNYQEYNLANIIYYSLKESTTSEQSARMTAMDNASKNASEMIDKLTLTFNRTRQAVITKELIEIISGAAALD

Each molecule was assayed on GFP-14-3-3β (assay: GFP-14-3-3β co-IP with LC-MS/MS, untreated GFP-14-3-3β versus GFP control (14-3-3 interactome)). Conditions: UntrtedvsGFP, Perseus raw output, LFQ intensity difference.
Assay type: binding, human

Molecule	Difference
B1	-0.5566

Same assay, conditions: log2 difference; pairwise comparison untreated vs GFP, label-free quantification, 3 replicates each

Molecule	Difference (log2), untreated vs GFP
B2	-1.1672

Same assay, conditions: untreated vs GFP; LFQ intensities; 3 replicates each

Molecule	Difference (log2), untreated vs GFP
B3	1.704 log2
B4	0.1802 log2
B5	0.5608 log2
B6	1.488 log2
B7	-1.1951 log2
B8	0.2489 log2
B1	-0.5566 log2
B9	0.0777 log2
B10	1.174 log2

These molecules were tested on GFP-14-3-3β and its binding proteins (assay: GFP-14-3-3β co-IP with LC-MS/MS label-free quantification, untreated versus PP1c-treated). Conditions: GFP-14-3-3β co-IP, PP1vsUntrted, Perseus raw output, LFQ intensity difference.
Design: species or system human

Molecule	Difference
B1	0.4615

Same assay, conditions: PP1 vs untreated; LFQ intensities; 3 replicates each

Molecule	Difference (log2), PP1 vs untreated
B3	0.4916 log2
B4	0.5082 log2
B5	0.4791 log2
B6	0.4707 log2
B7	0.4442 log2
B8	0.4677 log2
B1	0.4615 log2
B9	0.444 log2
B10	0.4773 log2

Same assay, conditions: log2 difference; pairwise comparison PP1 vs untreated, label-free quantification, 3 replicates each

Molecule	Difference (log2), PP1 vs untreated
B2	2.113
